Results on 94 variants are retold here after the supplement of paper PMC10567573.

B1: TCEB3B (parent)
chain: STTALGDKQRKANESKGTRESWDS
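Also: lentivirally expressed fusions sorted by FACS into six bins by GFP to DsRed ratio, PSI derived from sequencing read proportions per bin multiplied by bin number.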

The variants in the series derive from B1. As to the kind of experiment: protein stability index of a GFP-peptide fusion (GPS, HEK-293T) (PSI 1-6); higher = more stable. The settings on record: c terminus: a fixed tail appended.
STNALGDKQRKANESKGTRESWDS: the protein stability index is 3.77. For STDALGDKQRKANESKGTRESWDS, the protein stability index came to 3.98. As to STPALGDKQRKANESKGTRESWDS, the protein stability index is 4.02. Next, STSALGDKQRKANESKGTRESWDS: 3.57; STKALGDKQRKANESKGTRESWDS: 3.56; STFALGDKQRKANESKGTRESWDS: 3.32. Take STWALGDKQRKANESKGTRESWDS: the protein stability index was determined as 3.57. Next, STHALGDKQRKANESKGTRESWDS: 4.21; STMALGDKQRKANESKGTRESWDS: 4.1.

Turning to STEALGDKQRKANESKGTRESWDS, the protein stability index is 4.33. The figure for STCALGDKQRKANESKGTRESWDS is 3.22; for STQALGDKQRKANESKGTRESWDS it is 4.35; for STLALGDKQRKANESKGTRESWDS it is 3.83. Consider STVALGDKQRKANESKGTRESWDS, for which the protein stability index amounted to 4.36.

Regarding STRALGDKQRKANESKGTRESWDS, the protein stability index was 3.89. The figure for STYALGDKQRKANESKGTRESWDS is 3.77. Next, STAALGDKQRKANESKGTRESWDS: 3.89; STGALGDKQRKANESKGTRESWDS: 4.22. With STIALGDKQRKANESKGTRESWDS, the protein stability index amounted to 3.72. The figure for STTALWDKQRKANESKGTRESWDS is 3.29; for STTALYDKQRKANESKGTRESWDS it is 3.68; for STTALIDKQRKANESKGTRESWDS it is 3.59. In the case of STTALQDKQRKANESKGTRESWDS, the protein stability index came to 3.83. The figure for STTALTDKQRKANESKGTRESWDS is 3.81; for STTALLDKQRKANESKGTRESWDS it is 4.08; for STTALNDKQRKANESKGTRESWDS it is 4.38.

For the variant STTALADKQRKANESKGTRESWDS, the protein stability index came out at 3.65.

Consider STTALDDKQRKANESKGTRESWDS, for which the protein stability index was determined as 4.12. Consider STTALCDKQRKANESKGTRESWDS, for which the protein stability index turned out to be 3.74.

Consider STTALSDKQRKANESKGTRESWDS, for which the protein stability index turned out to be 3.85. Next, STTALEDKQRKANESKGTRESWDS: 4.31. Next, STTALMDKQRKANESKGTRESWDS: 3.93; STTALRDKQRKANESKGTRESWDS: 4.07; STTALVDKQRKANESKGTRESWDS: 2.98. Next, STTALHDKQRKANESKGTRESWDS: 3.78; STTALFDKQRKANESKGTRESWDS: 3.12. In the case of STTALKDKQRKANESKGTRESWDS, the protein stability index was found to be 3.3.

Consider STTALPDKQRKANESKGTRESWDS, for which the protein stability index turned out to be 4.34.

For the variant STTALGDKKRKANESKGTRESWDS, the protein stability index was 4.09.

As to STTALGDKPRKANESKGTRESWDS, the protein stability index is 3.53. The figure for STTALGDKTRKANESKGTRESWDS is 4.14; for STTALGDKSRKANESKGTRESWDS it is 3.71.

As to STTALGDKLRKANESKGTRESWDS, the protein stability index was 3.67. The figure for STTALGDKYRKANESKGTRESWDS is 3.64.

In the case of STTALGDKWRKANESKGTRESWDS, the protein stability index was 2.45.

With STTALGDKIRKANESKGTRESWDS, the protein stability index amounted to 3.72. The figure for STTALGDKERKANESKGTRESWDS is 3.71; for STTALGDKGRKANESKGTRESWDS it is 3.62; for STTALGDKNRKANESKGTRESWDS it is 3.47.

On to STTALGDKVRKANESKGTRESWDS, for which the protein stability index worked out at 3.85. The figure for STTALGDKDRKANESKGTRESWDS is 3.92; for STTALGDKCRKANESKGTRESWDS it is 3.37; for STTALGDKMRKANESKGTRESWDS it is 4.08.

STTALGDKARKANESKGTRESWDS: the protein stability index was found to be 3.38. As to STTALGDKRRKANESKGTRESWDS, the protein stability index came out at 3.52. The figure for STTALGDKFRKANESKGTRESWDS is 3.29; for STTALGDKHRKANESKGTRESWDS it is 4.26. Next, SDTALGDKQRKANESKGTRESWDS: 4.01. Regarding SGTALGDKQRKANESKGTRESWDS, the protein stability index turned out to be 3.49. Take SHTALGDKQRKANESKGTRESWDS: the protein stability index was determined as 3.77. SETALGDKQRKANESKGTRESWDS: the protein stability index worked out at 4.05. Regarding SATALGDKQRKANESKGTRESWDS, the protein stability index stood at 4.32. For the variant SWTALGDKQRKANESKGTRESWDS, the protein stability index is 3.16.

With SYTALGDKQRKANESKGTRESWDS, the protein stability index was 3.33. SFTALGDKQRKANESKGTRESWDS: the protein stability index came out at 3.75. The figure for SQTALGDKQRKANESKGTRESWDS is 3.33; for SSTALGDKQRKANESKGTRESWDS it is 4.09.

Take SCTALGDKQRKANESKGTRESWDS: the protein stability index turned out to be 3.8. With SRTALGDKQRKANESKGTRESWDS, the protein stability index is 5.3. The figure for SKTALGDKQRKANESKGTRESWDS is 4.11. As to SNTALGDKQRKANESKGTRESWDS, the protein stability index was 4.25. The figure for SLTALGDKQRKANESKGTRESWDS is 3.67; for SMTALGDKQRKANESKGTRESWDS it is 3.94. SPTALGDKQRKANESKGTRESWDS: the protein stability index turned out to be 3.94. Next, SITALGDKQRKANESKGTRESWDS: 3.29; SVTALGDKQRKANESKGTRESWDS: 3.67; MTTALGDKQRKANESKGTRESWDS: 4.22. The figure for YTTALGDKQRKANESKGTRESWDS is 3.6; for ATTALGDKQRKANESKGTRESWDS it is 3.94; for RTTALGDKQRKANESKGTRESWDS it is 3.88.

Turning to CTTALGDKQRKANESKGTRESWDS, the protein stability index worked out at 3.47. The figure for FTTALGDKQRKANESKGTRESWDS is 2.81; for WTTALGDKQRKANESKGTRESWDS it is 2.74. Next, QTTALGDKQRKANESKGTRESWDS: 3.67; VTTALGDKQRKANESKGTRESWDS: 4.06; ETTALGDKQRKANESKGTRESWDS: 3.85.

As for ITTALGDKQRKANESKGTRESWDS, the protein stability index was 3.58.

As for TTTALGDKQRKANESKGTRESWDS, the protein stability index came out at 3.61. Regarding KTTALGDKQRKANESKGTRESWDS, the protein stability index was found to be 3.12. Take LTTALGDKQRKANESKGTRESWDS: the protein stability index turned out to be 3.67. Next, DTTALGDKQRKANESKGTRESWDS: 4.16. Take PTTALGDKQRKANESKGTRESWDS: the protein stability index amounted to 3.77. Next, GTTALGDKQRKANESKGTRESWDS: 3.9. In the case of NTTALGDKQRKANESKGTRESWDS, the protein stability index was 4.3.
